{"source": "the supplement of paper PMC12764529"}
{"assay": "folding stability dG unfold (combined trypsin and chymotrypsin); higher = more stable", "protocol": "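Folding stability of de novo designed mini-proteins (<80 aa, no Cys; designed by TrROS, TrMRF, ProteinMPNN and the joint model) was measured by cDNA display proteolysis with trypsin and chymotrypsin. Each protease was used at 11 concentrations in a threefold dilution series plus a no-protease condition. K50 was inferred by Bayesian fitting of sequencing counts, and dG unfold was derived against a sequence-predicted unfolded-state K50 (Tsuboyama et al. method). Sequences shown include variable-length N-terminal GS-type padding (SAGGSAGG...) inside a display construct carrying a PA tag. Rows were kept only if the AF2 dimer inter-PAE was >15, to exclude likely homo-oligomers.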", "units": {"folding stability dG unfold": "kcal/mol"}}
{"sequence": "SAGGSAGGSAGGELVLPELNKPLNVEKEEVVVEGGEEVVKIKATGSGKPFEYVVPKGLGSAGGSAGGSAGGS [r10_517_JUSTAS]", "folding stability dG unfold": "< -1"}
{"sequence": "SAGGSAGGSAGGGKVKSIELNPETDLALVEIEPEDGGTATVVLPLDLLENIPLDGTLTISAGGSAGGSAGGS [r10_255_TrMRF]", "folding stability dG unfold": "< -1"}
{"sequence": "SAGGSAGGSAGGGPDWVLRRRTLEESSPVSTTPNPTGRRRTGYRTLVREEEVVLPPDLESAGGSAGGSAGGS [r10_524_JUSTAS]", "folding stability dG unfold": "< -1"}
{"sequence": "SAGGSAGGSAGGGSVHMPPLINWQEEEFEYESEEPVHIKRLVYKHPYSNEVEEEIEILLSAGGSAGGSAGGS [r10_881_JUSTAS]", "folding stability dG unfold": "< -1"}
{"sequence": "SAGGSAGGSAGGGSVTESPSYVVTRSADPAGPALYTVTDLSTGVPSSSTVAPDAPAVVPPSAGGSAGGSAGG [r7_177_JUSTAS]", "folding stability dG unfold": "< -1"}
{"sequence": "SAGGSAGGSAGGIKPGDKVRIMQMDKNGEMRGPVEIDNVEDGKITIKLPPPYRIMIQPYSAGGSAGGSAGGS [r10_1257_TrROS]", "folding stability dG unfold": "< -1"}
{"sequence": "SAGGSAGGSAGGIYIPMDDLKKNGMSIEQFADKLGHPVEIEVERNEPGSPVFKIEPDAKSAGGSAGGSAGGS [r10_855_TrROS]", "folding stability dG unfold": "< -1"}
{"sequence": "SAGGSAGGSAGGKRRKITIPFKMPDGRWHPIRANMSEEQLEDIVEHHPFFKPAIKKALKKSAGGSAGGSAGG [r7_637_TrROS]", "folding stability dG unfold": "< -1"}
{"sequence": "SAGGSAGGSAGGLKIPKGYPWKLSHNNGKEREFKFDSLDDIKEELNVPIPPGRNIQIEPYSAGGSAGGSAGG [r7_223_TrROS]", "folding stability dG unfold": "< -1"}
{"sequence": "SAGGSAGGSAGGMEDVKLLSKSYIPETNELEVTVEIPGGELVNIPLKPGVTDEDVLKLISAGGSAGGSAGGS [r10_984_JUSTAS]", "folding stability dG unfold": "< -1"}
{"sequence": "SAGGSAGGSAGGMELEVHYTPNGYHTAEIRDPNGKPVEIYFDSPEDAPKEAQKLAKELQSAGGSAGGSAGGS [r10_1066_TrROS]", "folding stability dG unfold": "< -1"}
{"sequence": "SAGGSAGGSAGGMITVKDPATGKWREVTPEELEEVLAANPGPITVEREGGRRTVPAALLSAGGSAGGSAGGS [r10_839_JUSTAS]", "folding stability dG unfold": "< -1"}
{"sequence": "SAGGSAGGSAGGMKVTVETFEGPDFEIVTERSPEGKVKVFTIKPNEVKEEVIPLENPELSAGGSAGGSAGGS [r10_1169_JUSTAS]", "folding stability dG unfold": "< -1"}
{"sequence": "SAGGSAGGSAGGMPELEKEGYKVEKFTIFEPDPLKPVGEVTVLTEVPKPKLLEGGSTSGLSAGGSAGGSAGG [r7_959_JUSTAS]", "folding stability dG unfold": "< -1"}
{"sequence": "SAGGSAGGSAGGMRDIAREFAEKNGDKNKPVRIKMPGGKKHNFTPDDIPDMPFDNWTIEPSAGGSAGGSAGG [r7_863_TrROS]", "folding stability dG unfold": "< -1"}
{"sequence": "SAGGSAGGSAGGMTKTYVTPVSPDVSEEEIKEKLAPEVSSVEVERDEESGTVTITTTLDSAGGSAGGSAGGS [r10_1007_JUSTAS]", "folding stability dG unfold": "< -1"}
{"sequence": "SAGGSAGGSAGGMVTIETPDEKYEITPTPEDRVLTKVYKKGKEIIKTKDPNSDKTEILDESAGGSAGGSAGG [r7_683_JUSTAS]", "folding stability dG unfold": "< -1"}
{"sequence": "SAGGSAGGSAGGMVTNEVIEVDPANPEEVIAEIKAKGKAEAKKIEKLEGDKMKVYVKTSLSAGGSAGGSAGG [r7_589_JUSTAS]", "folding stability dG unfold": "< -1"}
{"sequence": "SAGGSAGGSAGGNIEIEVERNPENGYYTVEIKFNNPPIEIMVPRGMPKEQAKDWAKDLISAGGSAGGSAGGS [r10_192_TrROS]", "folding stability dG unfold": "< -1"}
{"sequence": "SAGGSAGGSAGGNTRYIPMPPDDIEELIEEAKDEGIDNVIIHNPENGRWIKITGDKIKPVSAGGSAGGSAGG [r7_564_TrROS]", "folding stability dG unfold": "< -1"}
{"sequence": "SAGGSAGGSAGGPDIKEAKPGLYPDKPVIYFKLPDREVVLFPGPKERFVKFGDKVLKIPSAGGSAGGSAGGS [r10_559_TrMRF]", "folding stability dG unfold": "< -1"}
{"sequence": "SAGGSAGGSAGGPDVEKYPFKFPGKKFKIQRNPDDPDSYMISFPPGKTETFPLDDIKPLSAGGSAGGSAGGS [r10_556_TrROS]", "folding stability dG unfold": "< -1"}
{"sequence": "SAGGSAGGSAGGPEGQWIDMDVEHNPKNNKLTIKFPDSGKPITIPANNIERVGDYIRINSAGGSAGGSAGGS [r10_942_TrROS]", "folding stability dG unfold": "< -1"}
{"sequence": "SAGGSAGGSAGGPKIQIPVDSPEDAVDEARDWMEQQFGIDPEDMPINVHVNEDDGWLYIRSAGGSAGGSAGG [r7_387_TrROS]", "folding stability dG unfold": "< -1"}
{"sequence": "SAGGSAGGSAGGPYLRIKWKHPENGKTREIEIPFEGKPLEEIADNIKKEHGMTVTDIEPVSAGGSAGGSAGG [r7_590_TrROS]", "folding stability dG unfold": "< -1"}
{"sequence": "SAGGSAGGSAGGSGSFDPENGTIEIRVPKTKKPVKIPFPEEEADEFAENLPPNLDRVHFSAGGSAGGSAGGS [r4_282_TrROS]", "folding stability dG unfold": "< -1"}
{"sequence": "SAGGSAGGSAGGSGVRLRFPADYPELVEKLAKAFGLKPKSFNPDTGEVDIGNEPGAKIVSAGGSAGGSAGGS [r4_3_TrMRF]", "folding stability dG unfold": "< -1"}
{"sequence": "SAGGSAGGSAGGSKLPPGAKVKIRFPNNNKEHEIKSPEQIKTFEIDGREMKIRKIEVEDSAGGSAGGSAGGS [r4_214_TrROS]", "folding stability dG unfold": "< -1"}
{"sequence": "SAGGSAGGSAGGSMKIIEVPGPPEEVIEKIKEENPNAKVLSVEEDPEGGVTFKIEIEEKSAGGSAGGSAGGS [r4_95_JUSTAS]", "folding stability dG unfold": "< -1"}
{"sequence": "SAGGSAGGSAGGSNIKELAKELWDKNPGPRPIRFKGNGYKIRFQMPPEGRLRPVEIEKNSAGGSAGGSAGGS [r4_438_TrROS]", "folding stability dG unfold": "< -1"}
{"sequence": "SAGGSAGGSAGGSPAFVAPSPDAYLSADPVTGEWEPVPADHVVLSVDPSNGRVTISDPLSAGGSAGGSAGGS [r4_127_TrMRF]", "folding stability dG unfold": "< -1"}
{"sequence": "SAGGSAGGSAGGSTKTIMLDSPEKVEELVEEAMEKGDPITIEYHDPGEGKPFEFKFPVKSAGGSAGGSAGGS [r4_188_TrROS]", "folding stability dG unfold": "< -1"}
{"sequence": "SAGGSAGGSAGGSTLEEIREMAKQGKKFKIRNPGNNQEHEIRPDDLDDFRGSPISIEPVSAGGSAGGSAGGS [r4_157_TrROS]", "folding stability dG unfold": "< -1"}
{"sequence": "SAGGSAGGSAGGSVIMVNSPEWAKEFAGAMMQEKSRKHGEPMTPDDVPVEIEVYDPEDWSAGGSAGGSAGGS [r4_498_TrROS]", "folding stability dG unfold": "< -1"}
{"sequence": "SAGGSAGGSAGGSVTVSLSELKKILKEKGNPGTVEEILEDPNVSVSKDPNSSNEIVTIPGSAGGSAGGSAGG [r7_180_JUSTAS]", "folding stability dG unfold": "< -1"}
{"sequence": "SAGGSAGGSAGGTAEEIRDIFEEHGMEVEVEVTPDNVTIQYEMPNGKKREFRIPADDLKSAGGSAGGSAGGS [r10_1029_TrROS]", "folding stability dG unfold": "< -1"}
{"sequence": "SAGGSAGGSAGGTDKVKEKLAPGRDITVLKIDPTDSVVNVTVKSPDSDVDTVVEVDPELISAGGSAGGSAGG [r7_303_JUSTAS]", "folding stability dG unfold": "< -1"}
{"sequence": "SAGGSAGGSAGGTIEELAEKLPNVDLKPVEPGPGMRRIKAQPPNGKKFTIMVDDGKIHIQSAGGSAGGSAGG [r7_26_TrROS]", "folding stability dG unfold": "< -1"}
{"sequence": "SAGGSAGGSAGGVVSPSSEPVEMTVEEVILETERVPESGESLRPLPVRRVLRTVTNFGLSAGGSAGGSAGGS [r10_122_JUSTAS]", "folding stability dG unfold": "< -1"}
{"sequence": "SAGGSAGGSAGIKIPSNYKYKIEKSKDDYYEIYTEDKNKKFIVPKNAPIVVFEDNTVYVKSAGGSAGGSAGG [r17_49_TrMRF]", "folding stability dG unfold": "< -1"}
{"sequence": "SAGGSAGGSAGIKVDQNPESNMFSVKIRNDGKEKTIEIDMPPGEPPDIDDLAKKLGIEVVSAGGSAGGSAGG [r11_1053_TrROS]", "folding stability dG unfold": "< -1"}
{"sequence": "SAGGSAGGSAGKKKPPPKVTLVIRVKMSPEEVKKLAELFPDAKVTVTYDEETGLLTVTFDSAGGSAGGSAGG [r17_254_TrROS_Hall]", "folding stability dG unfold": "> 6"}
{"sequence": "SAGGSAGGSAGKNVPFRWRIRDPKNGNEKTIDVPMDSPEDMNRAADELQKKFPGYKVEPYSAGGSAGGSAGG [r11_233_TrROS]", "folding stability dG unfold": "< -1"}
{"sequence": "SAGGSAGGSAGKYISVDELRKNGDPDEAERVVKKIMEKFPGPKIKPIEWDKDGNHMFKIKSAGGSAGGSAGG [r11_365_TrROS]", "folding stability dG unfold": "< -1"}
{"sequence": "SAGGSAGGSAGMKIFKSKEEAKKAAGPPVELKVKKVPPGSIGKGDPNDTAYLVELKPKEKSAGGSAGGSAGG [r11_168_TrMRF]", "folding stability dG unfold": "< -1"}
{"sequence": "SAGGSAGGSAGMKKLVKITARVPDEKGNPILVEYEEEVDLKPSDSLPVPEGVLEEIEILESAGGSAGGSAGG [r11_664_JUSTAS]", "folding stability dG unfold": "< -1"}
{"sequence": "SAGGSAGGSAGMMTLKTGSVTIVRPVPAEEAPAPPEVPGAEELTRTEVVKTEVELLPAELLSAGGSAGGSAG [r3_488_JUSTAS]", "folding stability dG unfold": "< -1"}
{"sequence": "SAGGSAGGSAGMTPLYFRVERVDPASGGSLEEVVEIDPAEREAVVEELRAVPGLVRVELVSAGGSAGGSAGG [r17_438_JUSTAS]", "folding stability dG unfold": "< -1"}
{"sequence": "SAGGSAGGSAGPLVLVKELKSSRPVFDKNGKLIGTKTEVLVEAELLAPPANPDDPRYKETSAGGSAGGSAGG [r11_131_TrMRF]", "folding stability dG unfold": "< -1"}
{"sequence": "SAGGSAGGSAGPPGEPKPKPERKTVHINIPYPPGHPEMREKARELANELQDEGAKVEIYWSAGGSAGGSAGG [r11_519_TrROS]", "folding stability dG unfold": "< -1"}
{"sequence": "SAGGSAGGSAGPTTSSRTVKPGEVEEVKEAIEAQGVSVTVTLDPSTGTYTVGVTNPGVLGSAGGSAGGSAGG [r11_1043_JUSTAS]", "folding stability dG unfold": "< -1"}
{"sequence": "SAGGSAGGSAGSEKLEKIKEELKKKGYNDVEVKPAGPDPSVVLVKVKENKDIIIKIENEESAGGSAGGSAGG [r11_765_JUSTAS]", "folding stability dG unfold": "< -1"}
{"sequence": "SAGGSAGGSAGSMTVTVLEVVPGVPEVVLRRGDTEIRVPASRYTLERDADTTTLVVPEAASAGGSAGGSAGG [r17_403_JUSTAS]", "folding stability dG unfold": "< -1"}
{"sequence": "SAGGSAGGSAGSPAAERIAKYMEKQGGDNIDIEPVGPRPGYVRIKMKNNRPITIPLKEGDSAGGSAGGSAGG [r11_765_TrROS]", "folding stability dG unfold": "< -1"}
{"sequence": "SAGGSAGGSAGTRTINMPNPHQARELIKEQPPGKPITIHMPNPEWAKELADAPGVPIQMHSAGGSAGGSAGG [r11_1071_TrROS]", "folding stability dG unfold": "< -1"}
{"sequence": "SAGGSAGGSAIGLKDAVPGIENVAKALGAKAKAELKVLPDGKPYLVAKLYKDGKPLGELKVDSAGGSAGGSA [r18_369_TrMRF]", "folding stability dG unfold": "< -1"}
{"sequence": "SAGGSAGGSAIKIPPGYWVRGEFPNVTRHIPIDDIDELKKTFPGNPIRDIEVYDPEDGKPISAGGSAGGSAG [r3_134_TrROS]", "folding stability dG unfold": "< -1"}
